B1: INTS3 (parent)
chain: KKREFRFHPIKETVVEEPVDITPY

Variants of: B1
Test: protein stability index of a GFP-peptide fusion (GPS, HEK-293T) (PSI 1-6); higher = more stable
Settings: c terminus: a fixed tail appended
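Also: lentivirally expressed fusions sorted by FACS into six bins by GFP to DsRed ratio, PSI derived from sequencing read proportions per bin multiplied by bin number.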

Question: Which protein stability index does the source give for KKREFRFHPIKETVVEELVDITPY here?
Answer: 1.85

Question: With KKREFRCHPIKETVVEEPVDITPY as the variant, how does the protein stability index read?
Answer: 4.26

Question: For KKREFRFHPFKETVVEEPVDITPY, which protein stability index is on record?
Answer: 2.69

Question: Which protein stability index does the source give for KKREFRFKPIKETVVEEPVDITPY here?
Answer: 4.01

Question: Which protein stability index does the source give for KKREFRFHPIKETEVEEPVDITPY here?
Answer: 1.95

Question: With QKREFRFHPIKETVVEEPVDITPY as the variant, how does the protein stability index read?
Answer: 1.97

Question: With KKTEFRFHPIKETVVEEPVDITPY as the variant, how does the protein stability index read?
Answer: 1.73

Question: For KKREFRFHPIKETVVEEPVDITPK, which protein stability index is on record?
Answer: 1.71

Question: With KKREFRFHPIKETVVEEGVDITPY as the variant, how does the protein stability index read?
Answer: 1.79

Question: Which protein stability index does the source give for KKREFRFHPIKETCVEEPVDITPY here?
Answer: 1.98

Question: For KKREFTFHPIKETVVEEPVDITPY, which protein stability index is on record?
Answer: 4.38

Question: For KKREFRFHPIKETVVEEPVDGTPY, which protein stability index is on record?
Answer: 1.49

Question: For KKREFRFHPIKETVVFEPVDITPY, which protein stability index is on record?
Answer: 2.4

Question: With KKREFRFHPIKETVVEEPVDITFY as the variant, how does the protein stability index read?
Answer: 1.67

Question: With KKREFRFHPIKETNVEEPVDITPY as the variant, how does the protein stability index read?
Answer: 1.99

Question: With EKREFRFHPIKETVVEEPVDITPY as the variant, how does the protein stability index read?
Answer: 2.27

Question: For KKREFRFHPIKETRVEEPVDITPY, which protein stability index is on record?
Answer: 1.35

Question: For KKREFRFHPIKEMVVEEPVDITPY, which protein stability index is on record?
Answer: 1.57

Question: Which protein stability index does the source give for KKIEFRFHPIKETVVEEPVDITPY here?
Answer: 2.25

Question: Which protein stability index does the source give for KKREFRFHPIKETVVEETVDITPY here?
Answer: 1.36

Question: Which protein stability index does the source give for KKREFREHPIKETVVEEPVDITPY here?
Answer: 4.62

Question: Which protein stability index does the source give for KKREFRFHPIKETVVEEPCDITPY here?
Answer: 2.01

Question: For KKREFRFHPIKETVVEEPVKITPY, which protein stability index is on record?
Answer: 1.05

Question: Which protein stability index does the source give for KKREFRFHPRKETVVEEPVDITPY here?
Answer: 1.41

Question: Which protein stability index does the source give for KKMEFRFHPIKETVVEEPVDITPY here?
Answer: 1.43

Question: For KKREFRFHPICETVVEEPVDITPY, which protein stability index is on record?
Answer: 2.15

Question: For KKREFRFHPIKETVVELPVDITPY, which protein stability index is on record?
Answer: 2.15

Question: Which protein stability index does the source give for KKREFRFHPIKETVVEEPVIITPY here?
Answer: 1.7

Question: Which protein stability index does the source give for KKREFRFHPIKETVVEEPHDITPY here?
Answer: 1.76

Question: For PKREFRFHPIKETVVEEPVDITPY, which protein stability index is on record?
Answer: 1.66

Question: Which protein stability index does the source give for KKREFRFHPIKETAVEEPVDITPY here?
Answer: 1.52

Question: For KQREFRFHPIKETVVEEPVDITPY, which protein stability index is on record?
Answer: 2.17

Question: With KKREFRFHPIKETVVEEWVDITPY as the variant, how does the protein stability index read?
Answer: 2.29

Question: With KKREFRFHPIKDTVVEEPVDITPY as the variant, how does the protein stability index read?
Answer: 1.87

Question: With KKREFRFHPIKWTVVEEPVDITPY as the variant, how does the protein stability index read?
Answer: 2.98

Question: With KKREFRFHPIKETVVEEFVDITPY as the variant, how does the protein stability index read?
Answer: 2.72

Question: For KKREFRFHPIKETVVEEPVDITLY, which protein stability index is on record?
Answer: 1.84

Question: Which protein stability index does the source give for KKREFRFHPIKETVVERPVDITPY here?
Answer: 2.32

Question: Which protein stability index does the source give for KKRGFRFHPIKETVVEEPVDITPY here?
Answer: 1.54

Question: Which protein stability index does the source give for KKREFRFHPIKETVVEEPVDKTPY here?
Answer: 2.02

Question: For KKREFRFHPIKETVVPEPVDITPY, which protein stability index is on record?
Answer: 2.54

Question: Which protein stability index does the source give for KKREFRFHPIKETVVEEPVDFTPY here?
Answer: 1.92

Question: Which protein stability index does the source give for KKREFRFHPIKENVVEEPVDITPY here?
Answer: 1.63

Question: With KKREFRFHPIKETVVLEPVDITPY as the variant, how does the protein stability index read?
Answer: 1.88

Question: With KKRESRFHPIKETVVEEPVDITPY as the variant, how does the protein stability index read?
Answer: 4.45

Question: Which protein stability index does the source give for KHREFRFHPIKETVVEEPVDITPY here?
Answer: 1.67

Question: With KKREFRFHPIKEQVVEEPVDITPY as the variant, how does the protein stability index read?
Answer: 1.96

Question: With KKREFRFHPIKETKVEEPVDITPY as the variant, how does the protein stability index read?
Answer: 1.53

Question: For KKRWFRFHPIKETVVEEPVDITPY, which protein stability index is on record?
Answer: 1.41

Question: Which protein stability index does the source give for KKREFRFHPIWETVVEEPVDITPY here?
Answer: 1.61

Question: For KKREFRFHPIKETVVEEPVDRTPY, which protein stability index is on record?
Answer: 1.59

Question: For KKREFRFHPIKETVVEKPVDITPY, which protein stability index is on record?
Answer: 1.43

Question: With KKREFRFHPIKETVVGEPVDITPY as the variant, how does the protein stability index read?
Answer: 2.47

Question: For KKREFQFHPIKETVVEEPVDITPY, which protein stability index is on record?
Answer: 4.23

Question: For KKREQRFHPIKETVVEEPVDITPY, which protein stability index is on record?
Answer: 4.37

Question: Which protein stability index does the source give for KKREFRFHPIKETVQEEPVDITPY here?
Answer: 2

Question: Which protein stability index does the source give for KKREFRFHPEKETVVEEPVDITPY here?
Answer: 2.4

Question: For KKRLFRFHPIKETVVEEPVDITPY, which protein stability index is on record?
Answer: 1.79

Question: With KKREFRFHPIKETVVEEQVDITPY as the variant, how does the protein stability index read?
Answer: 2.06

Question: For KLREFRFHPIKETVVEEPVDITPY, which protein stability index is on record?
Answer: 1.83

Question: For KKREFRFHAIKETVVEEPVDITPY, which protein stability index is on record?
Answer: 2.5

Question: With KKREFRVHPIKETVVEEPVDITPY as the variant, how does the protein stability index read?
Answer: 4.65

Question: With KKREFRNHPIKETVVEEPVDITPY as the variant, how does the protein stability index read?
Answer: 4.91

Question: With KKREFRFSPIKETVVEEPVDITPY as the variant, how does the protein stability index read?
Answer: 3.54

Question: Which protein stability index does the source give for KKREFRFHPIKETVCEEPVDITPY here?
Answer: 1.68

Question: With KFREFRFHPIKETVVEEPVDITPY as the variant, how does the protein stability index read?
Answer: 2.08

Question: For KKVEFRFHPIKETVVEEPVDITPY, which protein stability index is on record?
Answer: 1.92

Question: With KKREFRFHFIKETVVEEPVDITPY as the variant, how does the protein stability index read?
Answer: 2.17

Question: Which protein stability index does the source give for KKCEFRFHPIKETVVEEPVDITPY here?
Answer: 2.35

Question: Which protein stability index does the source give for KKREFRFHPIKETYVEEPVDITPY here?
Answer: 1.89

Question: Which protein stability index does the source give for KKREFRQHPIKETVVEEPVDITPY here?
Answer: 4.24

Question: With KKREFRFCPIKETVVEEPVDITPY as the variant, how does the protein stability index read?
Answer: 3.25

Question: For KKREFRFHKIKETVVEEPVDITPY, which protein stability index is on record?
Answer: 2.59

Question: With KKREFRFHPIKETVVEQPVDITPY as the variant, how does the protein stability index read?
Answer: 2.42

Question: With KKREFRFHPIKETVVIEPVDITPY as the variant, how does the protein stability index read?
Answer: 2.29

Question: For KKREFRFHPIKSTVVEEPVDITPY, which protein stability index is on record?
Answer: 1.56

Question: For KKRIFRFHPIKETVVEEPVDITPY, which protein stability index is on record?
Answer: 2.05

Question: For KKREFRFHPIKETVVEEPVDYTPY, which protein stability index is on record?
Answer: 1.56

Question: Which protein stability index does the source give for KKREFRFHPCKETVVEEPVDITPY here?
Answer: 1.51

Question: Which protein stability index does the source give for KKREFRFHPIKETVVEEPVDITIY here?
Answer: 1.5

Question: For KKREFRFHPIKETVVEEPVDITKY, which protein stability index is on record?
Answer: 1.99

Question: With KKREFRFHPIKETVVEEPVDITYY as the variant, how does the protein stability index read?
Answer: 2.87

Question: Which protein stability index does the source give for KKRECRFHPIKETVVEEPVDITPY here?
Answer: 4.39

Question: Which protein stability index does the source give for KKREFRFHPIKETVVEEPVDVTPY here?
Answer: 2.63

Question: Which protein stability index does the source give for KKREFRFHPIKETVVEIPVDITPY here?
Answer: 2.6

Question: For KKREFRFHPIKETVVESPVDITPY, which protein stability index is on record?
Answer: 2.24

Question: With KKPEFRFHPIKETVVEEPVDITPY as the variant, how does the protein stability index read?
Answer: 1.66

Question: Which protein stability index does the source give for KKREFRFHPINETVVEEPVDITPY here?
Answer: 1.71

Question: Which protein stability index does the source give for KKREFRFHPIKETVAEEPVDITPY here?
Answer: 2.01

Question: For KKREFRFHPIKETVVHEPVDITPY, which protein stability index is on record?
Answer: 1.83

Question: With KKREFRFHPIKETVVEEPVDIVPY as the variant, how does the protein stability index read?
Answer: 1.58

Question: With KKRVFRFHPIKETVVEEPVDITPY as the variant, how does the protein stability index read?
Answer: 1.27

Question: With KKREFRFHIIKETVVEEPVDITPY as the variant, how does the protein stability index read?
Answer: 2.18

Question: With KKREFRFHPIKETVVEEIVDITPY as the variant, how does the protein stability index read?
Answer: 1.64

— the supplement of paper PMC10567573
